Experimental data taken from the RNAGym collection of RNA variant scans (doi:10.1073/pnas.2313332121).

B1: TPR t1 (parent)
chain: GACCAAUCUGCCCUCAGAGCUCGAGAACAUCUUCGGAUGCAGAGGAGGCAGGCUUCGGUGGCGCGAUAGCGCCAACGUCCUCAACCUCCAAUGCAUCCCACCACAUGAUGAUGCCUGAAGAGCCUUGGUUUUUUG

Variants of: B1
Assay: polymerase ribozyme fitness, log enrichment relative to wild type (log ratio); higher = more active; in vitro selection for triplet polymerase activity
In short: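 Genotype fitness is the logarithm of its enrichment divided by wild-type enrichment, using inverse-variance-weighted averages of replicates. That logarithm is base 2. Enrichment was measured by Illumina sequencing of input and output libraries from one triplicate in vitro selection round, with frozen incubation at −7 °C, on PCR-built, transcribed mutant libraries of each subunit of a heterodimeric triplet polymerase ribozyme, retaining genotypes with ≥10 input reads and ≥1 read per output.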

| Variant | polymerase ribozyme fitness (log ratio) |
| --- | --- |
| GACCCAUCUGCCCUCAGAGCUCGGGAACAUCUUCGGAUGCAGAGGAGUCAGGCUUCGGUGGCGCGAUAUCGCCAACGUCCUCAACCUCCAAUGCAUCCCACCACAUGAUAAUGCCUGAAGAGCUUUGGUUCUUUG [A5C A24G G48U G69U G110A C124U U131C] | -2.03 |
| GACCAAUCUGCCCUCAGAGCUCGAGAACAUCUUGGGAUGCAGAGGAGGCAGGCUUCGGUGGCGCGAUAGCGCCAACGUCCUCAACCUCCAAUGCAUCCCACCACAUGAUGAUGCCUGAAUAGCCUUGGUUUUUUG [C34G G120U] | -4.75 |
| GACCAAUCUGCCCUCAGAGCUCGAGAACAUCUUCGGAUGCGGAGGAGGCAGGCUUCGGUGGCGCGAUAGCGCCAACGUCCUCAACCUCCAAUGCAUCCCACCACAUGAUGAUGCCUGAAGAGCCUUCGUUUUUUG [A41G G127C] | -0.942 |
| GACCAAUCUGCCCUGAGAGCUCGAGAACAUCUUCGGAUGCAGAGGAGGCAGGCUUCGGUGGUGCGAUAGCGCCAACGUCCUCAACCUCCGAUGCAUCCCACCACAUGAUGAUGCCUGAAGAGCCUAGGUUUUUUG [C15G C62U A90G U126A] | -3.64 |
| GACCAAUCUGCCCUCAGAGCUCGAGAACAUCUCCGGAUGCAGUGGAGGCAGGCUUCGGUGGCGCGAUAGCGCCAACGUCCUCAACCUCCAAUGCAUCCCACCACAUGAUGAUGCCUGAAGAGCCUUGGUUUUUUG [U33C A43U] | -5.07 |
| GACCAAUCUGCCCUCAGAGCUCGAGAACAUCUUCGGAUGCAGAGGAGGCAGGCUUCGGUGCCGCGAUAGCGCCAACGUCCUCAACCUACAAUGCAUCCCACCACAUGAUGAUGCCUUAAGAGCCUUGGUUUUUUG [G61C C88A G117U] | -5.25 |
| GACCAAUCUGUCCUCAGAGCUCGAGAACAUCUUCGGAUGCAGAGGAGGCAGGCUCCGGUGACGCGAUAGCGCCAACGUCCUCAACCUCCAAUGCAUCCCACCACAUGAUGAUGCCUGAAGGGCCUUGGUUUUUUG [C11U U55C G61A A121G] | 1.39 |
| GACCAACCUGCCCUCAGAGCUCGAGAACAUCUUCGGAUGCAGAGGAGGCAGGCUUCGGUGGCGCGAUAGCUCCAACGUCCUCAACCUCCAAUGCAUCCCACCACAUGAUGAAGCCUGAAGAGCCUUGGUUUUAUG [U7C G71U U112A U133A] | 1.1 |
| GACCAAUCUGCCCUCAGAGCUCGAAAACAUCUUCGGAUGCAGAGGAAGCAGGCUUCGGUGGCGCGAUAGCGCCAACGUCCUCAACCUCCAAUGCAUCCCGCCACAUGAUGAGGCCUGAAGAGUCUUGGUUUUUUG [G25A G47A A100G U112G C123U] | -6.98 |
| GACCAAUCCGCCCUCAGAGCUCGAGGUCAUCUUCGGAUGCAGAGGAGGCAGGCAUCGGUGGCGCGAUAGCGCCAACGUCCUGAACCUCCAAUGCAUCCCACCACAUGAUGAUGCCUGAAGAGCCUUGGUUUUUUG [U9C A26G A27U U54A C82G] | -5.13 |
| GACCAAUCUGCCCUCAGAGCUCGAGAACAUCUUCGGAUGCAGAGGAGGCAGGCUUCGGUGGCGCGAUAGCACCAACGUCCUCAACCUCCAAAGCAUCCGACCACAUGAUGAUGCCUGAACAGCCUUGGUUUUUUG [G71A U92A C99G G120C] | -7.51 |
| GACCAAUCUGCCCUCAGAGCUCGAGAACAUCUUCGGAUGCAGAGGAGGCAGGCUUCGGUGGCGCGAUAGCACCAACGUCCUCAACCUCCAAUGCAUCCUACCACACGAUGAUGCCUGAAGAGCCUUGGUUUUUUG [G71A C99U U106C] | -5.44 |
| GACCAAUCUGCCCUCAGAGCUCGAGAACAUCUUCGGAUGCAGAGGAGGCAGGCUUCGAUGGCGCGAUAGCGGCAACGUCCUCAACCUCCAAUGCAUCCCACCACAUGAUGAUGCCUGAAGAGCCUUAGUUUUUUG [G58A C72G G127A] | -1.35 |
| GACCAAUCUGCCCUCAGAGCUCGAGAACCUCUUCGGAUGCAGAGGAGGCAGGCUUCGGUGGAGCGAUAGCGCCAACGUCCUCAACCUCCAAUGCAUCCCACCACAUGAUGAUGCCUGAAGAGCCUUGGUUUUUUG [A29C C62A] | -3 |
| GACCAAUCUGCCCUCAGAGCUCGAGAACAUCUUCGGAUGCAGAGGAGGCAGGCUUCGGUGGCGCGAUAGCGCCAACGUCCUAAACCUACAAUGCAACCCACCACAUGAUGAUGCCUGAAGAGCCUUGGUUUUUUG [C82A C88A U96A] | -1.57 |
| GACCAAUCUGCCCUCAGUGCUCGAGAACAUCUUCGGAUGCAGAGGAGGCAGGCUUCGGUGGCGCGAUAGGGCCAACGUACUCAACCUCCAAUGCAUCCCACCACAUGAUGAUGCCUGAAGAGCCUUGGUUUUUUG [A18U C70G C79A] | -7.76 |
| GACCAAUCUGCCCUCAGAUCUCGAGAACAUCUUCGGAUGCAGAGGAGGCAGGCUUCGGUGGCGCGAUAGCGCCAACGUCCUCAACCUCCAAUGCAUCCCACCACAUGAUGAUGCCUGAAGAGCCUUGGUUUUUUU [G19U G135U] | -3.57 |
| GACCAAUCGGCCCUCAGAGCUCGAGAACAUCUUCGGAUGCAGAGGCGGCAGGCUUCGGUGGCGCGAUAGCGCCAACGUCCUCAACCACCAAUCCAUCCCACCACAUGAUGAUGCACGACGAGCCUUGGUUUUUUG [U9G A46C U87A G93C C115A U116C A119C] | -3.97 |
| GACCAAUCUGCCCUCAGAGCUCGAGACCAUCUUCGGAUGCAGAGGAGGCAGGCUUCGGUGGCGCGAUAGCGCCAACGUCCUCAACCUCCAAUGCAUCCCACCACAUGAUGUUGCCUGUAAAGCCUUGGUUUUUUG [A27C A111U A118U G120A] | -5.36 |
| GACCAAUCUGCCCUCAGAACUCGAGAACAUCUUCGGAUGCAGAGGAGGCAGGCUUCGGUGGCGCGAUAGCGCCAACGUCCUCAACCUCCAGUGCAUCCCACCACAUGAUGAUGCCUAAAGAGCCUUGGUUUUUUG [G19A A91G G117A] | -5.25 |
| GACCAAUCUGCCCUCAGAGCUCGAGAACAUCUUCGGAUGCAGAGUAGGCGGGCUUCGGUGGCGCGAUAGCGCUAACGUCCUCAACCUCCAAUGCAUCCCACCACAUGAUGAUGCCUGAAGAGCCUUGGUUUUAUG [G45U A50G C73U U133A] | -1.75 |
